Results taken from the DeepSol protein solubility set.

experiment: soluble on expression in E. coli; label from the status in PepcDB or PDB records

Sequence	soluble on expression in E. coli
MNLDQAEITALTKRFETPFYLYDGDFIEAHYRQLRSRTNPAIQFYLSLKANNNIHLAKLFRQWGLGVEVASAGELALARHAGFSAENIIFSGPGKKRSELEIAVQSGIYCIIAESVEELFYIEELAEKENKTARVAIRINPDKSFGSTAIKMGGVPRQFGMDESMLDAVMDAVRSLQFTKFIGIHVYTGTQNLNTDSIIESMKYTVDLGRNIYERYGIVCECINLGGGFGVPYFSHEKALDIGKITRTVSDYVQEARDTRFPQTTFIIESGRYLLAQAAVYVTEVLYRKASKGEVFVIVDGGMHHHAASTFRGRSMRSNYPMEYIPVREDSGRRELEKVTIAGPLCTPEDCLGKDVHVPALYPGDLVCVLNSGAYGLSFSPVHFLGHPTPIEILKRNGSYELIRRKGTADDIVATQLQTESNLLFVDK	soluble
MGSDKIHHHHHHMVVRGRLKGVEAEFIDFHVHMPYWIRDPVKSCRRLLLEELTAGAISAVVIGVDASLETIKSRVTPREITEAAMEDFDYLAFQQVGYIGRMIMEPEKFLDDFLGDFHKHRRGPEDLRACRSVEPRFFYTIVSYKPGMEEEVAQIVRSDSSILGVKIFPTFHFTRPDSQRLYPVYKAVEEAGGLVVVHTGCDPGPWELTRFCREARPSYVARAAKRFENLVFVIAHLGAYSALKPGIYFEETLKALSLENVYADTSAADPFFAAMAVKEGYADKILFGSDYPYVSGYNVAMAVKDILSLDIDNNDKEAVLRYNAEKLLNSLPRGRQKPG	not soluble
MTHRSSRLEVGPVARGDVATIEHAELPPGWVLTTSGRISGVTEPGELSVHYPFPIADLVALDDALTYSSRACQVRFAIYLGDLGRDTAARAREILGKVPTPDNAVLLAVSPNQCAIEVVYGSQVRGRGAESAAPLGVAAASSAFEQGELVDGLISAIRVLSAGIAPG	soluble
MSWFLLNRNLTLLEPYDWKLSRTVLRGERGSNASDLPGKAIAKEGMADYIRYLFKTVRKFYGEAVVVTQEVDDIISSPIVKESIVNNSDCKILLDQRKYLNKFSQIQSLLGLTDKEKAQILSVNMSNDPRRKYKEVWFGLGGVQSTVYATEVSLEEYLCYSTEESEKVELEGLTKELGGNIELAIRRLAEKKRNQNNEIP	not soluble
LWLASDLHLGPATPATAEAFLGLLQAAADEASALLLPGDIFDAWIGDDVIRAAPPWLAAVLQGIRAAAGRIPVYLGRGNRDFLIGQELADALGAHLLPEPVLLETDYGRILLTHGDEYCTDDSAYQQFRAMVRNPQWQAQFLAMSIPERLAMAEQARGESQAANQAKSMEIMDVNPASVEAALREADVDVLVHGHTHRPARHVL	not soluble
MGSDKIHHHHHHMINYTELEENIKKNNIENVYIMCGFNEKLMKESINKILKKSISQDFESLNYSVFDGNEVEFEDILNACETVPFMSEKRMVVVYRAGFLNDNSSGSNKNSDKLIKDIEKYVPNVPKHCILVMYYVFDNTREKPSYRVKKFDKKVCVVEFSKLRGMQFQKKVKDVFAEKGKQIGKTELNYFCSRVENNMDIVYNEIEKLCCYTLEKEITKESIDNLLQPNETDDIFNLVDYISQSKPEMAITVLNEIMYKGVKANSILYMVERQFKLMLSIKIGIENKQSKEALVKELKLNPYVCDKMINECKRFTMKKILKSLDICLRTEKELKSVSGDPKFKMEVLIINLAII	not soluble
MGIKGSKPKLSKEDLEFLKKNTNFTEEQIKEWYKGFVQDCPKGHLTKEQFIKVYKDFFPSGSAEGFCEHVFRTFDTDNSGFIDFKEFLLAINVTSSGTPEQKLEWAFRMYDIDGNGTIDEKEMIKIIEAIYEMLGPEVTKSADDSPRKRAKMIFEKMDVNNDKELTLKEFVDGCLADKELFQILTNEVKK	not soluble
MVRTINLYYNNRTVQAIVELKNKPARWHKAKKVQLTPGQTEVKIDLPLPIVASNLMIEFADFYENYQASTETLQCPRCSASVPANPGVCGNCGENVYQCHKCRSINYDEKDPFLCNACGFCKYARFDFMLYAKPCCAVDPIENEEDRKKAVSNINTLLDKADRVYHQLMGHRPQLENLLCKVNEAAPEKPQVVPRCKGHLDKGLGLDQKTAS	not soluble
MGSDKIHHHHHHMESSTNPWWVPEDFLAKLQKRVNPEKLAKYGLNDIRQAYFGIYLGIRLDDGSRAPQFLPYKPGFANHIFFLGRSGYGKTSIMRALAEGIYDYFYLNGRKALIIIIEAKYDKTKVKKLMTFREYIIQNFGYDYLLENYPWLENYLQEYSQKRPLLGKIGDFAFGWPNVEGIMTKVDSHHNQFQRHRLQPMIYPSTRIVFRPTRDLSLISRDNGMNVQVVEGKISYERLEVEDLTKFTYVNTQTNYMRILDIYWGQKKIRDPDRFLKEVIRNEYPPRSGETIEDILRSRDRTIANLRTLMNKLKSDRLFTKDPKEEFVKKLTPDRINVIDFSANSRLSDEEEAEIFNILVNYVVNEFALKKDIPVFIIVDEVQNIAKHRLGMAAINKIYREGRSLEISLISGTQYLSGLSKDLVRGATHIGIVGRLASERDAELLEEILDERFDTGEKPRSLQELFRIRKARRGKGKFSIDCEYTFTIEYRVPKTL	not soluble
LSLTQLSSGNPVYEKYYRQVEAGNTGRVLALDAAAFLKKSGLPDLILGKIWDLADTDGKGVLSKQEFFVALRLVACAQNGLEVSLSSLSLAVPPPRFHD	soluble
EKFPLVLMLEPTHLCNLACSGCGRIREYADTIQQMMSLEECLRSVDECPAPVVTITGGEPFLYTHIYELIPEVLDRGKHVYLCTNGLLLEKALENVKVHPNFYLNVHMDGLEETHDRILERKGTFKVAIEGIRKAKAKGFRVCTNTTIFKDTDLVEIEMLFSLLTDLGVDGILVAPGFDYEAVG	not soluble
GASTRDYEIQRERIELGRCIGEGQFGDVHQGIYMSPENPALAVAIKTCKNCTSDSVREKFLQEALTMRQFDHPHIVKLIGVITENPVWIIMELCTLGELRSFLQVRKYSLDLASLILYAYQLSTALAYLESKRFVHRDIAARNVLVSSNDCVKLGDFGLSRYMEDSTYYKASKGKLPIKWMAPESINFRRFTSASDVWMFGVCMWEILMHGVKPFQGVKNNDVIGRIENGERLPMPPNCPPTLYSLMTKCWAYDPSRRPRFTELKAQLSTILEEEKAQQEE	soluble
MVGVMSNSSALSREFVKIEIGGKVIKGNSKVENSGDYFDGHCPQAFHAFSGIDGTVFDLINLKLRVTKHIQDLLENFFKRGEKEVKIEILRRESTKSGSAYSSFKVVYQGCRMHNMLLAHDNDSNLILELSFTPEESVSIEMNIPSDDGKSTEKLGPMTYNLYKEALV	not soluble
MLAFIRFLFAGLLLVISHAFAATVQDEHGTFTLEKTPQRIVVLELSFADALAAVDVIPIGIADDNDAKRILPEVRAHLKPWQSVGTRAQPSLEAIAALKPDLIIADSSRHAGVYIALQQIAPVLLLKSRNETYAENLQSAAIIGEMVGKKREMQARLEQHKERMAQWASQLPKGTRVAFGTSREQQFNLHTQETWTGSVLASLGLNVPAAMAGASMPSIGLEQLLAVNPAWLLVAHYREESIVKRWQQDPLWQMLTAAQKQQVASVDSNTWARMRGIFAAERIAADTVKIFHHQPLTVVK	soluble
MSREILTVVETVSNEKGVSREAIFEALEQALVAATKKKFYEGTNAEEAQLRVEIDRKTGDYRTFRQWTLVADEDHEMPACQDAISDVDASKWSIGDVRELEVESIEFGRIAAQIAKQVIVQKIREAERALIADAYESKVGELIYGEVKKQTKDGFIIDLGDNAEAYLAREEMIAKEILRPKQRMNAILYSVNREGRGAQLLLSRARPEMLMALMKKEIPEISEEIIEIKAAARQPGVRAKIAVKTNDHRIDPVGACIGMRGTRIQAVQQELNGERIDVVVWSDDPAQYIASALEPADVSGIVLDEDTRSADIIFATNDQLARAIGSQGQNVRLASELTGYKLDMMLEEEYRARQQNEAQQYLDMFVTRLDIEEDLAMALVEMGFTSLEEIAYVPPETFDEIELDQELVELLQSRAKEAALTDALKQQENVQEPSVELLAMAGMTQELAYALAARGVVTVDDLADQATDDISDIEGLSEEKAGQLIMKARESWFNLEHHHHHH	soluble
